In PMC4306681:

Key:
[1] = target: Fc-tagged WT perlecan DII from WT CHO cells (UniProt P98160); assay: radioligand binding; stable WT CHO cell lines expressing Fc or Fc-tagged proteins, binding of [I^125]labeled LDL (supplementary Fig. 3)
[2] = target: Fc-tagged perlecan DI from WT CHO cells (UniProt P98160); assay: as above
[3] = target: Fc-tagged perlecan DI+II from WT CHO cells (UniProt P98160); assay: as above
[4] = target: Fc-tagged WT perlecan DII from WT CHO cells (UniProt P98160); assay: pull-down; Fc-tagged proteins on protein-A agarose incubated with human ApoB-100 (5 μg); 20 mM HEPES pH 6.0, 10 mM NaCl, 1% BSA ('optimal binding condition'), room temperature 1 h; blot with anti-ApoB antibody, quantified from three experiments
[5] = target: Fc-tagged perlecan DI+II from WT CHO cells (UniProt P98160); assay: as above
[6] = target: Fc-tagged secreted perlecan DII (sDII), as purified in Fig. 1D; assay: in vitro saturation binding analysis; sDII 10.0 pM with increasing LDL (supplementary Fig. 1); further conditions not shown
[7] = target: sialidase C-treated Fc-tagged WT perlecan DII; assay: pull-down; Fc-tagged proteins on protein-A agarose incubated with human LDL (10 μg in Fig. 1E/F with 500 ng protein; 1.5 μg in Fig. 5D); 20 mM HEPES pH 6.0, 10 mM NaCl, 1% BSA, room temperature 1 h; blot with anti-LDL or anti-ApoB antibody

Chain of human ApoB-100 (P04114 28-4563): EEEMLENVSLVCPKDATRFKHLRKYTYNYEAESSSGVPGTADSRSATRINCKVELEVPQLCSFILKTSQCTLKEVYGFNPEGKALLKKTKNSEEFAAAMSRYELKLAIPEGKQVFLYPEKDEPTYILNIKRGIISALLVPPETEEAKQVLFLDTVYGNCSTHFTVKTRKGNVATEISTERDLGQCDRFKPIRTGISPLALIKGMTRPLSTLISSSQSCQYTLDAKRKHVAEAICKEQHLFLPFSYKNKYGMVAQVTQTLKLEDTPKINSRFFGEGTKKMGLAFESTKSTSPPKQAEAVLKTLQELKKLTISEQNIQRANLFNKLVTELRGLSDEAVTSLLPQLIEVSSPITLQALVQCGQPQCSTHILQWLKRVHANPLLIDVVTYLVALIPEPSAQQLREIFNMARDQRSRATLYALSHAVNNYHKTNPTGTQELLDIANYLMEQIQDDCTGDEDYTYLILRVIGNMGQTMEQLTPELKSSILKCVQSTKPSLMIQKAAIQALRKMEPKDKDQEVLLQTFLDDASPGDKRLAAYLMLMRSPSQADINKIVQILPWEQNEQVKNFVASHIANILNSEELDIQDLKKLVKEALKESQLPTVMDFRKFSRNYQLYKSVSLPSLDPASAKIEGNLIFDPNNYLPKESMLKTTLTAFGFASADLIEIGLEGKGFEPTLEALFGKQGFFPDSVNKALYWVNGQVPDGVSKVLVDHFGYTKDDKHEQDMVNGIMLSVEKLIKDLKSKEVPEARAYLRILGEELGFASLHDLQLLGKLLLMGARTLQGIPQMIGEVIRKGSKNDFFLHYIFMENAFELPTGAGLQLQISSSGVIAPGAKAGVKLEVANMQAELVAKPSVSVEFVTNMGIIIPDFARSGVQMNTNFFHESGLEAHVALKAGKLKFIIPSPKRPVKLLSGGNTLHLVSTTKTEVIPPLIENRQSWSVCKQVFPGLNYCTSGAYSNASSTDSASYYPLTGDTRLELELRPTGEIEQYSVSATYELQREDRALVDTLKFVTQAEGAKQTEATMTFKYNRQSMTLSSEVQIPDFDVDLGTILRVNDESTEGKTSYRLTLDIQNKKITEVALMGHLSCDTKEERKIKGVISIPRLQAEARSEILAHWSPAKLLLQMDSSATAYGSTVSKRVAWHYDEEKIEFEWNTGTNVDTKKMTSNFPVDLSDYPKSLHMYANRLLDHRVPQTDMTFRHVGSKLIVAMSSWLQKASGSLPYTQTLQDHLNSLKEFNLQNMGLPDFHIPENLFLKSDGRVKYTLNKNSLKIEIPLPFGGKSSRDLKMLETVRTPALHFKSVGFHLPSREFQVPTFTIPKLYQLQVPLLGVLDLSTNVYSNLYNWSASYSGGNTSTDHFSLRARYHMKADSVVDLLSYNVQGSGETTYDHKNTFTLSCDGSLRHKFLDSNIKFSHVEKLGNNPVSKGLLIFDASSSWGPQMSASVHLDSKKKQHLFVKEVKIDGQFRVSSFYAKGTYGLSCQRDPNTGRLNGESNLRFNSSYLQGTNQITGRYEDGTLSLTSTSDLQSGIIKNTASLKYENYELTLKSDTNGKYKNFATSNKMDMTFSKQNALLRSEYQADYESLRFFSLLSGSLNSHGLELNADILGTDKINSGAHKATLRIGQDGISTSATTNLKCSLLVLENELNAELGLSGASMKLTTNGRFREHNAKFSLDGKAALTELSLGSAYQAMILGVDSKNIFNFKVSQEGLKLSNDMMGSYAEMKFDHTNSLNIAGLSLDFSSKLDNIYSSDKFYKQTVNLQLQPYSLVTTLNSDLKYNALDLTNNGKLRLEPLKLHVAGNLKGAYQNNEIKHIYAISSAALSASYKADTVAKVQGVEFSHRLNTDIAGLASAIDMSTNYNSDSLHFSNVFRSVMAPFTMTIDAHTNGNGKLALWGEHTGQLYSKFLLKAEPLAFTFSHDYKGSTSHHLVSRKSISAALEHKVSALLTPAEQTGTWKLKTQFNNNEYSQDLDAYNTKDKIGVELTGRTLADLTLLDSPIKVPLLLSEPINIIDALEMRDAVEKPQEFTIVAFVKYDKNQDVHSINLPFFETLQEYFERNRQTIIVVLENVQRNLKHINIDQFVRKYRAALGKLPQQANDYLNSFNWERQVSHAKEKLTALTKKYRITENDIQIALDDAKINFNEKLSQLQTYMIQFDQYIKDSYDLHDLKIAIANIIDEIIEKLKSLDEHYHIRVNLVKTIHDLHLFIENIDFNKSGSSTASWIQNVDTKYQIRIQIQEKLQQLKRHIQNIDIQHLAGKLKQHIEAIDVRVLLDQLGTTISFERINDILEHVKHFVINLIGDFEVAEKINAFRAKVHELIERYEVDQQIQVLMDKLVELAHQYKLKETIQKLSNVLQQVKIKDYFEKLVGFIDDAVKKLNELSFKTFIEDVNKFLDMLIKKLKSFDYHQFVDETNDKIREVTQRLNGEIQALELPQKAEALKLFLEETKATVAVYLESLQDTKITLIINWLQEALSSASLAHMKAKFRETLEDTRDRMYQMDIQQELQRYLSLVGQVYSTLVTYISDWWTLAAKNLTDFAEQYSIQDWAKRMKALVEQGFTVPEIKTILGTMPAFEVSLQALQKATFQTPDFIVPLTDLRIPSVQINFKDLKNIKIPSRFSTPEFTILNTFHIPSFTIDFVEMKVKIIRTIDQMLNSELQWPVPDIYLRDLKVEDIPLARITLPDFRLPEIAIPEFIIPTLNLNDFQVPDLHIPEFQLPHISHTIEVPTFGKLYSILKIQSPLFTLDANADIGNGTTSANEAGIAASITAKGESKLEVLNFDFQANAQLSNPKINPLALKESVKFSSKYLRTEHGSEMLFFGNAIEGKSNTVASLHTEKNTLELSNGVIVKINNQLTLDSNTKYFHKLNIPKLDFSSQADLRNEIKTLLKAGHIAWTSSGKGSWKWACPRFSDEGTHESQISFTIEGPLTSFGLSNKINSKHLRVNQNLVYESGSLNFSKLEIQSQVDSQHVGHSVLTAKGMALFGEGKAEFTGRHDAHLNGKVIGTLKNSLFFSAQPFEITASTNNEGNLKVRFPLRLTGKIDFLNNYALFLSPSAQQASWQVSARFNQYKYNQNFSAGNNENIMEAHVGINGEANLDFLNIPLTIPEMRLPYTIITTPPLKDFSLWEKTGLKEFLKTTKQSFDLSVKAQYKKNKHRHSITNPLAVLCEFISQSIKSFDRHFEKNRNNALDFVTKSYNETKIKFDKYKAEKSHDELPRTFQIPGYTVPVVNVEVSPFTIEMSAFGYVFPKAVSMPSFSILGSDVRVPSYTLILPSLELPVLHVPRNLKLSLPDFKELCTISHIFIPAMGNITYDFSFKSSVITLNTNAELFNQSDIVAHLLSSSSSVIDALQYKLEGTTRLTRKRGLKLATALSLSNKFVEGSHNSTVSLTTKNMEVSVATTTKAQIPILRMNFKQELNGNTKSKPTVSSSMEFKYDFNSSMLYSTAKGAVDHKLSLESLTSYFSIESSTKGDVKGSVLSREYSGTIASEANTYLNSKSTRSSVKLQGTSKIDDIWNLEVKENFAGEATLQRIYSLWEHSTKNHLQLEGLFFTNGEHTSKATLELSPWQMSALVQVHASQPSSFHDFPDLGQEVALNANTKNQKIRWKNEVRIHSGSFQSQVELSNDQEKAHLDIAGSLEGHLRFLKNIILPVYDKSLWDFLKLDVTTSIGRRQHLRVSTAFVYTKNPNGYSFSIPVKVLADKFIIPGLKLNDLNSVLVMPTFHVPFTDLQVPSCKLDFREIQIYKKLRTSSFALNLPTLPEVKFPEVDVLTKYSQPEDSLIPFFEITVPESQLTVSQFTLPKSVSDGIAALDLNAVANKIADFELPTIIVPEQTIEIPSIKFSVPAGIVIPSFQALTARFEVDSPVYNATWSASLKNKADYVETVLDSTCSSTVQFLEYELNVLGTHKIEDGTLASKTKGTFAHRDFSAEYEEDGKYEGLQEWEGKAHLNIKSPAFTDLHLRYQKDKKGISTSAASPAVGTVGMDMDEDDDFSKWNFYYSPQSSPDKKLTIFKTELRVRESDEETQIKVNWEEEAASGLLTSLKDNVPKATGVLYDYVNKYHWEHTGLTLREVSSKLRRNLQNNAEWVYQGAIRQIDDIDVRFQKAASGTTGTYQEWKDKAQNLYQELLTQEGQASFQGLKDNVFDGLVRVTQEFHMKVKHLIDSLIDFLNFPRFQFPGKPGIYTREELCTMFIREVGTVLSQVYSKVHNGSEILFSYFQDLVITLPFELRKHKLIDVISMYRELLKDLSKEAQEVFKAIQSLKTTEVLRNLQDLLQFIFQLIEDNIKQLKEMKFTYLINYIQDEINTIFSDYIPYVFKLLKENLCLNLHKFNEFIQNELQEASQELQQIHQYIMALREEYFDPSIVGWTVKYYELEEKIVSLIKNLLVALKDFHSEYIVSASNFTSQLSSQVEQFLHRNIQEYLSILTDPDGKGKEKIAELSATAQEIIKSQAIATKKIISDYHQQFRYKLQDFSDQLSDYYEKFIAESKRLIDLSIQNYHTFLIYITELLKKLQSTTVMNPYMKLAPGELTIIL

Substance: [I^125]labeled LDL (complex)
- percent increase of [I^125]LDL binding to cells [1]: 31%
- percent increase of [I^125]LDL binding to cells [2]: 26%
- percent increase of [I^125]LDL binding to cells [3]: 43%

Substance: human ApoB-100 (from UniProt P04114 28-4563) (natural protein)
- percent increase of binding over WT DI [4]: 24%
- percent increase of binding over DI alone [5]: 90%
- percent increase of binding over WT DII [5]: 53%

Substance: human LDL (complex)
- LDL concentration at which binding to sDII (10.0 pM) became saturated [6]: 16.3 pM
- percent reduction of binding against mock-treated WT DII [7]: 50%
